These results are taken from publication PMC3226482 (Molecular Biology of the Cell, 2011).

As a reminder, the Kd is the concentration at which binding is half-saturated. High values mean a looser complex, low ones a tighter complex.

The labels stand for the following.
B4: importin 4 (natural protein)
chain: MESAGLEQLLRELLLPDTERIRRATEQLQIVLRAPAALPALCDLLASAADPQIRQFAAVLTRRRLNTRWRRLAAEQRESLKSLILTALQRETEHCVSLSLAQLSATIFRKEGLEAWPQLLQLLQHSTHSPHSPEREMGLLLLSVVVTSRPEAFQPHHRELLRLLNETLGEVGSPGLLFYSLRTLTTMAPYLSTEDVPLARMLVPKLIMAMQTLIPIDEAKACEALEALDELLESEVPVITPYLSEVLTFCLEVARNVALGNAIRIRILCCLTFLVKVKSKALLKNRLLPPLLHTLFPIVAAEPPPGQLDPEDQDSEEEELEIELMGETPKHFAVQVVDMLALHLPPEKLCPQLMPMLEEALRSESPYQRKAGLLVLAVLSDGAGDHIRQRLLPPLLQIVCKGLEDPSQVVRNAALFALGQFSENLQPHISSYSREVMPLLLAYLKSVPLGHTHHLAKACYALENFVENLGPKVQPYLPELMECMLQLLRNPSSPRAKELAVSALGAIATAAQASLLPYFPAIMEHLREFLLTGREDLQPVQIQSLETLGVLARAVGEPMRPLAEECCQLGLGLCDQVDDPDLRRCTYSLFAALSGLMGEGLAPHLEQITTLMLLSLRSTEGIVPQYDGSSSFLLFDDESDGEEEEELMDEDVEEEDDSEISGYSVENAFFDEKEDTCAAVGEISVNTSVAFLPYMESVFEEVFKLLECPHLNVRKAAHEALGQFCCALHKACQSCPSEPNTAALQAALARVVPSYMQAVNRERERQVVMAVLEALTGVLRSCGTLTLKPPGRLAELCGVLKAVLQRKTACQDTDEEEEEEDDDQAEYDAMLLEHAGEAIPALAAAAGGDSFAPFFAGFLPLLVCKTKQGCTVAEKSFAVGTLAETIQGLGAASAQFVSRLLPVLLSTAQEADPEVRSNAIFGMGVLAEHGGHPAQEHFPKLLGLLFPLLARERHDRVRDNICGALARLLMASPTRKPEPQVLAALLHALPLKEDLEEWVTIGRLFSFLYQSSPDQVIDVAPELLRICSLILADNKIPPDTKAALLLLLTFLAKQHTDSFQAALGSLPVDKAQELQAVLGLS

Assay [1] deals with T1, importin β (human, UniProt Q14974 1-876). The assay is described as follows: ITC.
T1 sequence (Q14974 whole entry): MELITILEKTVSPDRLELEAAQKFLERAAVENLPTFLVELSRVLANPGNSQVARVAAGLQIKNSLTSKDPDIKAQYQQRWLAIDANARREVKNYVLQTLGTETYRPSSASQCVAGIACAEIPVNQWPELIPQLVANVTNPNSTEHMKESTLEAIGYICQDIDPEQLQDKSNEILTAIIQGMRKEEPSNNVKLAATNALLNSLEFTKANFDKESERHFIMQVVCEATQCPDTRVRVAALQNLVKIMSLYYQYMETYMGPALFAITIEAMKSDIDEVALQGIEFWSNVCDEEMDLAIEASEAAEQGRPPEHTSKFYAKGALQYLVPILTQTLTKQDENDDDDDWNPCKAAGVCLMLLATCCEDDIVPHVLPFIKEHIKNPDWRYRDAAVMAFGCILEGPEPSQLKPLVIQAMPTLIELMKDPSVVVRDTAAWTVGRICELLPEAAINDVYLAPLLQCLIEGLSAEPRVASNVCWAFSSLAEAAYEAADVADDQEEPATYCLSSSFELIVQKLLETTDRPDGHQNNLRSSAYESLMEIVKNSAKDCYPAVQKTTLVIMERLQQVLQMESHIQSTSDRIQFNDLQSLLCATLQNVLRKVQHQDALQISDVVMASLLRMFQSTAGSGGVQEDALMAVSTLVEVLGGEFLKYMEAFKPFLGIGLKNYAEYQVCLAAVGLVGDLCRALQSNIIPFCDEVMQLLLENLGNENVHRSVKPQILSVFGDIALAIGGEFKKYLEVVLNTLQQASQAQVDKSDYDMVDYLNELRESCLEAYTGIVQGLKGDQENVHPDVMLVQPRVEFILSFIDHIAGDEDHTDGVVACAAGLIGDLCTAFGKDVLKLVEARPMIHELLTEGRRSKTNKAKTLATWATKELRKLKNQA
Another assay deals with T2, karyopherin β2 (human, UniProt Q92973 1-898).
T2 sequence: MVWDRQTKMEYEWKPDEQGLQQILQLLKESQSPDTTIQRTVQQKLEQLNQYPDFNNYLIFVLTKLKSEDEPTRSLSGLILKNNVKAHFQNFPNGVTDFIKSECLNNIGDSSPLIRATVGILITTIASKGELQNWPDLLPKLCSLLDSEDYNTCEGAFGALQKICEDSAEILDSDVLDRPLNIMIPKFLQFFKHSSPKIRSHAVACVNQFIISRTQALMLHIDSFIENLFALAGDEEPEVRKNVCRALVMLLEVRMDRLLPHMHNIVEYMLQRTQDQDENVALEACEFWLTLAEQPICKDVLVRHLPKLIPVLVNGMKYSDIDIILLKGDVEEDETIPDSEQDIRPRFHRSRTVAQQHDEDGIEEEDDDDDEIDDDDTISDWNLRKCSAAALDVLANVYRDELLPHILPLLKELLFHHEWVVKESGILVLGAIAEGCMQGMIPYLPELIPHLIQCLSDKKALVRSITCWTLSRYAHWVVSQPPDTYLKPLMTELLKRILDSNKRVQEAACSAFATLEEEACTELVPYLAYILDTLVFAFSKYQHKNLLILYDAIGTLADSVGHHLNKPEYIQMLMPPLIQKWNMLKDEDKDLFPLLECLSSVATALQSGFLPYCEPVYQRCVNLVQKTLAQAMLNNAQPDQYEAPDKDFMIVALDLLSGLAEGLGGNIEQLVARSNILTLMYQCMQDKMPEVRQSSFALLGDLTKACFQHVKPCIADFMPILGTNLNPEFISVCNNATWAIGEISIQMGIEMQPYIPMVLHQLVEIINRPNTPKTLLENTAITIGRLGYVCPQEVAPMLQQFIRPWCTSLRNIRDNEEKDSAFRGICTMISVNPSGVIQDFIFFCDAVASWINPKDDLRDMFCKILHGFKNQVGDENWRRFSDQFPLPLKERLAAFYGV
Description: ITC. On the technique in general: ITC needs no label: the signal is the heat of the interaction.

The target of the next assay is T3, GST-Imp11 (human, UniProt Q9UI26 1-975).
T3 sequence: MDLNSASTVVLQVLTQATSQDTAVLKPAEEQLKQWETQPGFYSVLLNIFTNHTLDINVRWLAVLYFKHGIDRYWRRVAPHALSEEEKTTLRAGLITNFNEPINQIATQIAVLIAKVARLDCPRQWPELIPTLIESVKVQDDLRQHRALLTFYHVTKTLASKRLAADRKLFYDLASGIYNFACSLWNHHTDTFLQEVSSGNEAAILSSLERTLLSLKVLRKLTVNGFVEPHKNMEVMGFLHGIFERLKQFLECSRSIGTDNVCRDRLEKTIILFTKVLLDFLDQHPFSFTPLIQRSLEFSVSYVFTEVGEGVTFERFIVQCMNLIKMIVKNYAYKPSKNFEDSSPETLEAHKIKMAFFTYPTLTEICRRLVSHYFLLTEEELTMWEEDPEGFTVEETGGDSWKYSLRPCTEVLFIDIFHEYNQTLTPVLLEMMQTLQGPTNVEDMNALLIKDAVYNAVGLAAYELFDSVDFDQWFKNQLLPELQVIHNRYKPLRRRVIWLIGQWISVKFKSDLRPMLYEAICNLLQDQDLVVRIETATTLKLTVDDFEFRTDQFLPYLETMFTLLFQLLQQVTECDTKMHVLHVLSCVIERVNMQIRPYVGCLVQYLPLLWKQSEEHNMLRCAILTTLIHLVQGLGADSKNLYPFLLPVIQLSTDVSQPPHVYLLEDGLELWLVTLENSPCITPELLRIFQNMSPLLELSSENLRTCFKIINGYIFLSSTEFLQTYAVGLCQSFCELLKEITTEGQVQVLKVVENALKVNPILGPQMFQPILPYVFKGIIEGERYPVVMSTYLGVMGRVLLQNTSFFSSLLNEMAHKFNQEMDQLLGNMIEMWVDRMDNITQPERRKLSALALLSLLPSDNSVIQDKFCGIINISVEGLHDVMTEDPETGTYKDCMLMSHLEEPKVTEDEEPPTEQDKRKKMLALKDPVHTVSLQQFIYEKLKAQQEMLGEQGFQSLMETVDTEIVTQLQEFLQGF
Description: pull-down.

The target in another assay is T4, GST-Imp4 (human, UniProt Q8TEX9 1-1081).
T4 sequence: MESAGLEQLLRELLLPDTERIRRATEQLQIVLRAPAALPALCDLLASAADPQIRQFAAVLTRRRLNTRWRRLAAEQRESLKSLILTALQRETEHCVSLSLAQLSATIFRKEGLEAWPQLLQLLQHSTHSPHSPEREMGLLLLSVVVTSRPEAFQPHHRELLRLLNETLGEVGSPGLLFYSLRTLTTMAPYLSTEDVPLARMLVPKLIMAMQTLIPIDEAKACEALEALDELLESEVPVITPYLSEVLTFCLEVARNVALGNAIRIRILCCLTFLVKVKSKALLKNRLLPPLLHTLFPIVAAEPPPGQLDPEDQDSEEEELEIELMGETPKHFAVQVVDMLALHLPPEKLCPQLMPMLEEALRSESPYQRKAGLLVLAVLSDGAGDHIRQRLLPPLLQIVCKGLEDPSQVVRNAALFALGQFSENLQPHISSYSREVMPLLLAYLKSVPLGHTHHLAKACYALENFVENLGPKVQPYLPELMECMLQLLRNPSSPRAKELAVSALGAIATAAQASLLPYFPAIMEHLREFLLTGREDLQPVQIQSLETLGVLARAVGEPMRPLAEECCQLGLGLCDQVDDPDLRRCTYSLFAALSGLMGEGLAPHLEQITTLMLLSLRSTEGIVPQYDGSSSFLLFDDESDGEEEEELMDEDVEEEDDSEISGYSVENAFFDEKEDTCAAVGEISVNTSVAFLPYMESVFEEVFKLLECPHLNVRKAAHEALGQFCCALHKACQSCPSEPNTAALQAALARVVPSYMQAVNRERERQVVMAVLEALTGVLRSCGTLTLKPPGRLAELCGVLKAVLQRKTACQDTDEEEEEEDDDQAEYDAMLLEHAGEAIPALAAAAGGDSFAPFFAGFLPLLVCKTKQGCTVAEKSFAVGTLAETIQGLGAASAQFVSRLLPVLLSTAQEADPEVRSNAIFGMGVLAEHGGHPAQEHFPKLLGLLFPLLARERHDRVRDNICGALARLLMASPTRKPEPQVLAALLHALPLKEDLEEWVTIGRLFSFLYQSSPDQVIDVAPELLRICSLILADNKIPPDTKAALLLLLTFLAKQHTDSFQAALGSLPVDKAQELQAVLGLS
The assay is described as follows: pull-down.

Assay [2] has as its target RanGTP (recombinant human Ran loaded with GTP) (human, UniProt P62826 1-216). Description: pull-down.
The target of a further assay is T5, importin 11 (human, UniProt Q9UI26 1-975).
T5 sequence: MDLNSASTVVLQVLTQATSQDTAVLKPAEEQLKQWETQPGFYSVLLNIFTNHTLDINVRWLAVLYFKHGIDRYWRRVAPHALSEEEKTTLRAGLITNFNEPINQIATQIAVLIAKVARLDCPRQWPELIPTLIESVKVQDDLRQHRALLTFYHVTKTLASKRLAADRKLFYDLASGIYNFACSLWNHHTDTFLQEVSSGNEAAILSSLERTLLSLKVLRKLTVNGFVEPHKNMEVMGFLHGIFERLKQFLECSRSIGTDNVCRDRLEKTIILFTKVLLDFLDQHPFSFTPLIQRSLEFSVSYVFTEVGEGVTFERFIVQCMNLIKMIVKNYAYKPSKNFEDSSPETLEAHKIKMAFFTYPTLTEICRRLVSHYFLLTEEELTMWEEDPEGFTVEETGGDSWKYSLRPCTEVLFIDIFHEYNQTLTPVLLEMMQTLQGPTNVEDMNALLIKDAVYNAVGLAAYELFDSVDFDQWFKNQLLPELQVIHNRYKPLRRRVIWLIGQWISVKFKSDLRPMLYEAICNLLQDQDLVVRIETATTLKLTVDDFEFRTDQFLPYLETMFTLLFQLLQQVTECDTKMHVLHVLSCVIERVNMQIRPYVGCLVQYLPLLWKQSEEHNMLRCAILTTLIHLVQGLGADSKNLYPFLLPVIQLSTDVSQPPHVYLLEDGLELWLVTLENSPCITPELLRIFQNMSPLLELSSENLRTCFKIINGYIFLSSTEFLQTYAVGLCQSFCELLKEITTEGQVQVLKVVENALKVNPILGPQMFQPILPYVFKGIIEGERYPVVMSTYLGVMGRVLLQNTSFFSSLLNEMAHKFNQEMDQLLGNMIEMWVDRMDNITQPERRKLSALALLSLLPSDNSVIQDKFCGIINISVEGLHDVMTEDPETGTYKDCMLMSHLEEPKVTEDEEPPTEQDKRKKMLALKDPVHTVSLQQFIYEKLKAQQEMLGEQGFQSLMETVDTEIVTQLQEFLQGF
Description: pull-down.

Assay [3] has as its target T1, importin β. The assay is described as follows: pull-down.
The target of the assay “importin 4” is B4. The assay is described as follows: pull-down.

B1: MBP-hsNXF1-N (domain or fragment)
chain: MADEGKSYSEHDDERVNFPQRKKKGRGPFRWKYGEGNRRSGRGGSGIRSSRLEEDDGDVAMSDAQDGPRVRYNPYTTRPNRRGDTWHDRDRIHVTVRRDRAPPERGGAG
Turning to B1, in the assay with importin β [1], the “dH (two-site model, site 1)” value is -7.51 kcal/mol and the “dH (two-site model, site 2)” value is -4.6 kcal/mol. In the assay with karyopherin β2, binding was put at a Kd of 40.5 nM and the dH is -17.2 kcal/mol. Moreover, the binding result in the assay with GST-Imp11 is “binds”. The binding result in the assay with GST-Imp4 is on record as “binds”.

B2: MBP-hsNXF1-N(71-75/A) (domain or fragment)
chain: MADEGKSYSEHDDERVNFPQRKKKGRGPFRWKYGEGNRRSGRGGSGIRSSRLEEDDGDVAMSDAQDGPRVAAAAATTRPNRRGDTWHDRDRIHVTVRRDRAPPERGGAG
B2: in the assay with importin β [1], the “dH (two-site model, site 1)” value is -7.73 kcal/mol and the “dH (two-site model, site 2)” value is -3.28 kcal/mol. In the assay with karyopherin β2, this molecule showed a Kd of 215 nM and a dH of -12.9 kcal/mol.

B3: MBP-hsNXF1-N(21-30/A) (domain or fragment)
chain: MADEGKSYSEHDDERVNFPQAAAAAAAAAAWKYGEGNRRSGRGGSGIRSSRLEEDDGDVAMSDAQDGPRVRYNPYTTRPNRRGDTWHDRDRIHVTVRRDRAPPERGGAG
In the case of B3, in the assay with importin β [1], the Kd came out at 2230 nM and the dH was -2.48 kcal/mol. In addition, in the assay with karyopherin β2, the Kd turned out to be 128 nM and the dH is -13.9 kcal/mol.
Consider B4, for which the binding result in assay [2] was “binds”.

B5: GST-hsNXF1 (full-length human NXF1) (natural protein)
chain: MADEGKSYSEHDDERVNFPQRKKKGRGPFRWKYGEGNRRSGRGGSGIRSSRLEEDDGDVAMSDAQDGPRVRYNPYTTRPNRRGDTWHDRDRIHVTVRRDRAPPERGGAGTSQDGTSKNWFKITIPYGRKYDKAWLLSMIQSKCSVPFTPIEFHYENTRAQFFVEDASTASALKAVNYKILDRENRRISIIINSSAPPHTILNELKPEQVEQLKLIMSKRYDGSQQALDLKGLRSDPDLVAQNIDVVLNRRSCMAATLRIIEENIPELLSLNLSNNRLYRLDDMSSIVQKAPNLKILNLSGNELKSERELDKIKGLKLEELWLDGNSLCDTFRDQSTYISAIRERFPKLLRLDGHELPPPIAFDVEAPTTLPPCKGSYFGTENLKSLVLHFLQQYYAIYDSGDRQGLLDAYHDGACCSLSIPFIPQNPARSSLAEYFKDSRNVKKLKDPTLRFRLLKHTRLNVVAFLNELPKTQHDVNSFVVDISAQTSTLLCFSVNGVFKEVDGKSRDSLRAFTRTFIAVPASNSGLCIVNDELFVRNASSEEIQRAFAMPAPTPSSSPVPTLSPEQQEMLQAFSTQSGMNLEWSQKCLQDNNWDYTRSAQAFTHLKAKGEIPEVAFMK
As for B5, the binding result with importin 11, with importin β [3] and with importin 4 was “binds” in each case.
